Measurements: the DeepSol protein solubility set

experiment: soluble on expression in E. coli; label from the status in PepcDB or PDB records

Row | Sequence | soluble on expression in E. coli
1 | MFSLRDAKCGQTVKVVKLHGTGALKRRIMDMGITRGCEIYIRKVAPLGDPIQINVRGYELSLRKSAAEMIEVE | not soluble
2 | MLRVYHSNRLDVLEALMEFIVERERLDDPFEPEMILVQSTGMAQWLQMTLSQKFGIAANIDFPLPASFIWDMFVRVLPEIPKESAFNKQSMSWKLMTLLPQLLEREDFTLLRHYLTDDSDKRKLFQLSSKAADLFDQYLVYRPDWLAQWETGHLVEGLGEAQAWQAPLWKALVEYTHQLGQPRWHRANLYQRFIETLESATTCPPGLPSRVFICGISALPPVYLQALQALGKHIEIHLLFTNPCRYYWGDIKDPAYLAKLLTRQRRHSFEDRELPLFRDSENAGQLFNSDGEQDVGNPLLASWGKLGRDYIYLLSDLESSQELDAFVDVTPDNLLHNIQSDILELENRAVAGVNIEEFSRSDNKRPLDPLDSSITFHVCHSPQREVEVLHDRLLAMLEEDPTLTPRDIIVMVADIDSYSPFIQAVFGSAPADRYLPYAISDRRARQSHPVLEAFISLLSLPDSRFVSEDVLALLDVPVLAARFDITEEGLRYLRQWVNESGIRWGIDDDNVRELELPATGQHTWRFGLTRMLLGYAMESAQGEWQSVLPYDESSGLIAELVGHLASLLMQLNIWRRGLAQERPLEEWLPVCRDMLNAFFLPDAETEAAMTLIEQQWQAIIAEGLGAQYGDAVPLSLLRDELAQRLDQERISQRFLAGPVNICTLMPMRSIPFKVVCLLGMNDGVYPRQLAPLGFDLMSQKPKRGDRSRRDDDRYLFLEALISAQQKLYISYIGRSIQDNSERFPSVLVQELIDYIGQSHYLPGDEALNCDESEARVKAHLTCLHTRMPFDPQNYQPGERQSYAREWLPAASQAGKAHSEFVQPLPFTLPETVPLETLQRFWAHPVRAFFQMRLQVNFRTEDSEIPDTEPFILEGLSRYQINQQLLNALVEQDDAERLFRRFRAAGDLPYGAFGEIFWETQCQEMQQLADRVIACRQPGQSMEIDLACNGVQITGWLPQVQPDGLLRWRPSLLSVAQGMQLWLEHLVYCASGGNGESRLFLRKDGEWRFPPLAAEQALHYLSQLIEGYREGMSAPLLVLPESGGAWLKTCYDAQNDAMLDDDSTLQKARTKFLQAYEGNMMVRGEGDDIWYQRLWRQLTPETMEAIVEQSQRFLLPLFRFNQS | soluble
3 | VDYKTVRCHFGDVELTKWITITDGFTVFSGADYDPELKEIGGKDGSIFIGTKTKHKVIKVPFWVKYNTIEDYDALQLALSSKKPKMLMFSHIPGRYYLAVQVGDLNFKEIKMNGFGEITFIVADAYAHSTSYRRIKDYTQDGNKMTFKIKNNGTAPAFPIFRIKHLGENGYIGITNETGAFAVGSPEEEDGTIVHRNETLFDYSKAIAQALEGAPNVAKLNYMPPTFDSELKRMRLDNILGSGKGGEYVAIGARGTTPGYGEHVGTRTFIINPDSNGEYTLNEHLWWKQIFIATAQDQKGFLKLCVTGENDEFLYGIETYKRKNGFETEYNFFALDDDGVGWRFYKQFEFQADRNYHNPFSMNRSRAVEIFREEDKFRIYFNGAHHHVTVPSLKGKKSRKIHLAMGTCSDSSKYINYNLFEKVNFEKMGVSHYNNIVNKYQPGDEVIINFENDTVSTKDIDSIQDVVLGSKMISIPPGESELVVHLSSWVA | not soluble
4 | SDRSAEFRKWKAQCLSKADLSRKGSVDEDVVELVQFLNMRDQFFTTSSCAGRILLLDRGINGFEVQKQNCCWLLVTHKLCVKDDVIVALKKANGDATLKFEPFVLHVQCRQLQDAQILHSMAIDSGFRNSGITVGKRGKTMLVVRSTHGLEVPLSHKGKLMVTEEYIDFLLNVANQKMEENKKRIERFYNCLQHALERETMTNLHPKIKEKNNSSYIHKKKRNPEKTRAQCITKESDEELENDDDDDLGINVTIFPEDY | soluble
5 | MVTPSLRLVFVKGPREGDALDYKPGSTIRVGRIVRGNEIAIKDAGISTKHLRIESDSGNWVIQDLGSSNGTLLNSNALDPETSVNLGDGDVIKLGEYTSILVNFV | soluble
6 | MEGVDPAVEEAAFVADDVSNIIKESIDAVLQNQQYSEAKVSQWTSSCLEHCIKRLTALNKPFKYVVTCIIMQKNGAGLHTAASCWWDSTTDGSRTVRWENKSMYCICTVFGLAI | soluble
7 | MITFRKRVEIEADPAEVFRVISDPWRITEFWKGTRQVIEDGDFYRIRFAFPAWGLMSFHPDAERMTVLTSYLKGPVRGSKVDAVLVSSGKTVLQTEWNVRLSFYLRPFERRIASHFESGADHAINRIKESVEKDKK | not soluble
8 | SQSPNPNNPAEYCSTIPPLQQAQASGALSSPPPTVMVPVGV | soluble
9 | MAKSYDYQSAFDIIGPVMMGPSSSHTAGAVKIGNSARAILGDIPKNIEIHYYESFAQTHQGHGTDVAIVGGAMGYSTFDNRIKSSLEIAADDGIKIDIIEEEGDSIGQHPNCAYIKSSRNDGRYIEIIGISIGGGTIKIKGIHINGLEVDLNHGLPILVVDGNMTKAQVNHFINDINDMKLDCKDEFIKIDEDKCLVVIPLNKAISESTLNTIKEKYSDVNVSYIN | not soluble
10 | MMKVYRLYLRDEYLEMVKSGKKRIEVRVAYPQLKGMKRGDKIIFNDEVPAEVIEVKHYETFRQVLREEPIDKIFPDEPSFERALRRFHNLYPKWKENRYGVIAIKFKLLGRERK | soluble
11 | SPTVEACGYSDRIIQITRGDSTITSQDVANAIVAYGVWPHYLSSKDASAIDKPSQPDTSSNRFYTLRSVTWSSSSKGWWWKLPDALKDMGIFGENMFYHYLGRSGYTIHVQCNASKFHQGTLIVALIPEHQIASALHGNVNVGYNYTHPGETGREVKAETRLNPDLQPTEEYWLNFDGTLLGNITIFPHQFINLRSNNSATIIAPYVNAVPMDSMRSHNNWSLVIIPICPLETSSAINTIPITISISPMCAEFSGARAKRQ | soluble
12 | SNAMNYFELFGLPIQFELDGSLLSSQFRALQKRFHPDNFATASERDRLMAVQQAAQINDAYQTLKDPLRRAEYLLSLQGIEMNAEQQTLQDPMFLMEQMELREELESVTACADPEAALVAFDTKVTAMQRHYLAQLQGQLAQSEWLAAADQIRKLKFIAKLKNEVERVEDQLLG | soluble
13 | MMKIAIIGSGISGLTCGYYLHRYHDITLFEANDYIGGHTATVDVELAGKPYAVDTGFIVYNDRTYPNFIKMMDEIGVQGKPTQMSFSVRNDANGLEYNGHTLTTLFAQKRNWLNPKFYRFIAEILRFNRLTKACVDNQLANEQTLGDFLAQHQFSEYFCENYILPMGAAIWSSSLADMRAFPLMFFARFFLNHGLLDVTNRPQWYVIPGGSRSYIAPLTQGFGDRIRLNSAVTQVKRLPSGVEVVVNGRSERFDEVIFACHSDQALAMLSDASSTEQQLLSALAYQANEVVLHTDTRLLPKRKAAWAAWNYWLKGEANQETRLPSLTYNMNILQHIEAPETFCVTLNSSEDIDPSKILRRFTYHHPVFSRPAIEAQQKKAQISGVNHTWFCGAYWHNGFHEDGVRSALDVVTQLEAYAQRSEQGAA | not soluble
14 | MKGLFLIFHGFEAFNGISKKIRYQVKALKECGLEMHTCWLDDTDNHKRRMVDESIIADYGFGIKGKILKRIEFDSIVHYVQKENIDFIYVRYVHNASPFSIRLMKLLKKTGARIVMEIPTYPYDQEYKGLPFVYQRILFIDKCFRQHLARYVDKIVTFSDYDIIWNRPTIRISNGIDFSEIPLRGPKNDTAHSLQLIAVATMHPWHGFDRVIAGMANYYRTHTDTHDYKVYLNIVGFGVPELVDSYKKDVAKHQLEKYIIFHSALYGKELDAVFEQSDMGIGSLARHRSGIDKIKTLKNREYAARGIPFVYSETDDDFEHQPYILKAAPDDSPLDIEKVIRFYQSLKTTPLQIRMSIEQSLSWKAQMQIVINETFE | not soluble
15 | AGHRGQCVGRHREVVAIDNSKATNPHAADSALAGFSSVVWVAGGQLKGAEIDELIVRHAGRIKAVALLGVDRDVIEDSVRTHIPGIPVLSVSETDPRRAMDEAVAWSVSQAEAGDAIVLAPAAASLDMYTGMGQRGDMFATAI | not soluble
16 | GPELYHYQECVRGTTVLLKEPCPSGTYEGNSPFHPLADNKFALTCTSTHFAFACADGTRHTYQLRARSVSPKLFIRQEEVQQELYSR | soluble
17 | MEKREFPVSDRIFPEVSIPYGDKSTKAMQITCACCGAVAYFPHQTGVNRKPPIAATQHFQNKGWVVGGNPRKDFCPIHAAPAKRKGQKAMVDTVATIADKPREMSREDRRIINDKLDEVYAKDAYKSPWTDSAVAKDLGVPRDWVAQVRDQFFGPAGSNPLYDEFLKETKLVEGAFLACEEATARAEKAAADQRRAHGDLCKAMDSYRVLARKVEREISR | not soluble
18 | MTKKALSAVILAAGKGTRMYSDLPKVLHTIAGKPMVKHVIDTAHQLGSENIHLIYGHGGDLMRTHLANEQVNWVLQTEQLGTAHAVQQAAPFFKDNENIVVLYGDAPLITKETLEKLIEAKPENGIALLTVNLDNPTGYGRIIRENGNVVAIVEQKDANAEQLNIKEVNTGVMVSDGASFKKWLARVGNNNAQGEYYLTDLIALANQDNCQVVAVQATDVMEVEGANNRLQLAALERYFQNKQASKLLLEGVMIYDPARFDLRGTLEHGKDVEIDVNVIIEGNVKLGDRVKIGTGCVLKNVVIGNDVEIKPYSVLEDSIVGEKAAIGPFSRLRPGAELAAETHVGNFVEIKKSTVGKGSKVNHLTYVGDSEIGSNCNIGAGVITCNYDGANKFKTIIGDDVFVGSDTQLVAPVKVANGATIGAGTTITRDVGENELVITRVAQRHIQGWQRPIKKK | soluble
19 | MGSDKIHHHHHHMKKATDKNPTTTSKPNTITPLFTTNYNVYINHTDAGGIVYHANHLVFFENCRRDWFTQLGLNGYFLESNDGQIQHFVVTQADLQYKHAILLDEVINVRIDNVEIKPASIVFYQSIYRQQSQDNTANNAKAVLLSSTKIVVACVQNQITPDSIDNNASNNTAPMRPVRVPQKLRDAIERAIAEHIVEIL | not soluble
20 | NDDIIVNWVNRTLSEAGKSTSIQSFKDKTISSSLAVVDLIDAIQPGCINYDLVKSGNLTEDDKHNNAKYAVSMARRIGARVYALPEDLVEVKPKMVMTVFACLMGRGMKRV | soluble
21 | MAPLFAVTLYEFKAERDDELDVSPGENLSICAHYDYEWFIAKPINRLGGPGLVPVSYVRIIDLMDPAKYASVDTYDREQVMKIIDEFKIPTVEQWKDQTRRYKESSIQIGNGHGQSQGLE | soluble
22 | MARTVNLKGNPVTLVGPELKVGDRAPEAVVVTKDLQEKIVGGAKDVVQVIITVPSLDTPVCETETKKFNEIMAGMEGVDVTVVSMDLPFAQKRFCESFNIQNVTVASDFRYRDMEKYGVLIGEGALKGILARAVFIIDKEGKVAYVQLVPEITEEPNYDEVVNKVKELI | not soluble
23 | MLIRVEIPIDAPGIDALLRRSFESDAEAKLVHDLREDGFLTLGLVATDDEGQVVGYVAFSPVDVQGEDLQWVGMAPLAVDEKYRGQGLARQLVYEGLDSLNEFGYAAVVTLGDPALYSRFGFELAAHYDLHCRWPGTESAFQVHRLAEDALEGVTGLVEYHDHFNRF | not soluble
24 | MGSDKIHHHHHHMTDTAPAANIATLSELLKLSGSQYRLYDIGRLVSELPKEQFEKVELNQLPYPTPTQGCACIAIAFWQKQSSQPYLWLLKLPLDERGLLNQGARNHFIAIIVEALGADLTQETSKKQEELLSSNPYLFTPAQYKLASLNSKIKVDLKQQPSAYFSPFREYLSHGSDWGNWQGVGVQGITDFIARIKHDNHSELLLNALPHLPDEVLSPVCSALENEQYPVVLIDALVSALENALIIPDNSVKTMQLLRSLAANSDHTHVRKVVGQLLSNQEVSSELLITLSGRCWQALADEKMLMCYFEHLLSNNNLPLFSSIFKDLVTIPLIRPVAFQCIRSEDRSPALAQAIGQLLSQT | not soluble
25 | MAHHHHHHMFLIVDAGDMLVEGLFVEANNTTLHYREKFIVKNTDGSMAINAASMTRQLHPRKQMHLHPSSLPIAIHQDNRTPLQHMLRGTHHMQRPTVVSCNTPTMAIMKGTEDVVLRRDTTTRHAGAQFRALQDLLQLKRARAGHTHLTSRSKWIGLDRQKRTPHRF | not soluble
